Experimental data as given in publication PMC10662374, “Structures of the interleukin 11 signalling complex reveal gp130 dynamics and the inhibitory mechanism of a cytokine variant” (Nature Communications, 2023).
Changes are numbered by the printed parent chain.

T1: gp130EC (human, UniProt P40189 23-619, N-linked glycans (N21, N61, N135 seen in the structures))
T1 construct: Secreted with a honeybee-melittin signal peptide; D5-D6 are not in the deposited model 8DPT; also called complete extracellular domains of gp130; D1-D6 domains of gp130; not shown: His8, N-terminal, cleaved
T1 sequence (looked up): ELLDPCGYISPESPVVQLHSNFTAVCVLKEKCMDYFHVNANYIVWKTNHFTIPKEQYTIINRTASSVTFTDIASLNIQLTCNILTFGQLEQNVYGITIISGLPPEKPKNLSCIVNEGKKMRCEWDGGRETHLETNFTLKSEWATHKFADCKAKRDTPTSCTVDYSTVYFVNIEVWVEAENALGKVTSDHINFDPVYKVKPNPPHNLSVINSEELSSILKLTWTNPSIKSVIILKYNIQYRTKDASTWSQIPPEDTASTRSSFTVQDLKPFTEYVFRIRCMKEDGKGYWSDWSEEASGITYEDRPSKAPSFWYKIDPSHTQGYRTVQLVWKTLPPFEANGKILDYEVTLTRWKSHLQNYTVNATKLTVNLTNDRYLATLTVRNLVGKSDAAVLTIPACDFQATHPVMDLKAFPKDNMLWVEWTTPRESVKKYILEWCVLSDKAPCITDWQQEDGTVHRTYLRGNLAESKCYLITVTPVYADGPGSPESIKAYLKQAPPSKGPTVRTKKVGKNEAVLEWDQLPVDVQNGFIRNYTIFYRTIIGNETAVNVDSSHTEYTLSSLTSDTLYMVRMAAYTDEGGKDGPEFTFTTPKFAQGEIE

T2: IL-11_(Δ10/Mutein)/IL-11Rα_(D1-D3) binary complex (human, UniProt P20809 32-199; Q14626 23-319, W147A | ^58AMSAG^62 to ^58PAIDY^62)
T2 construct: IL-11, human, IL-11Δ10 with W147A and 58-62 AMSAG to PAIDY, as m4; numbers count on: the mature protein; IL-11Rα, human, D1-D3, as m8; m4 with m8; source: formed from the purified proteins; in ITC by titrating the cytokine into IL-11Rα; not shown: His6, N-terminal, cleaved; His8, N-terminal, cleaved
T2 sequence 1: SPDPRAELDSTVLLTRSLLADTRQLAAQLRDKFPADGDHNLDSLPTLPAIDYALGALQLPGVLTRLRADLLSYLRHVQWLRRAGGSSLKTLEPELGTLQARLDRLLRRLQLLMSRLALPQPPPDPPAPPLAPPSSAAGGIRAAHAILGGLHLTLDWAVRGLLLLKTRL
T2 sequence 2: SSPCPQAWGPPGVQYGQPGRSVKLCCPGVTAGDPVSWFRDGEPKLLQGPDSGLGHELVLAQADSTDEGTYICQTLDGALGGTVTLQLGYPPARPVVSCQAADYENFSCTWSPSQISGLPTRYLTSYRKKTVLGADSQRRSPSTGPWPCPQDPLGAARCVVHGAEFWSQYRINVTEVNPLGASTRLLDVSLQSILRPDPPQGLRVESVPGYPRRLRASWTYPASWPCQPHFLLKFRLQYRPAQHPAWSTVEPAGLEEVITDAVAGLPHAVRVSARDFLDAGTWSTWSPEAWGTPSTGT

B1: IL-11Δ10/IL-11Rα_(D1-D3)/gp130EC trimer (complex, human)
chain 1: T2 sequence 1 with P48A, A49M, I50S, D51A, Y52G, A137W
chain 2: T2 sequence 2
chain 3: T1 sequence (looked up)
notes: IL-11, human, IL-11Δ10, as m1; numbers count on: the mature protein; IL-11Rα, human, D1-D3, as m8; gp130, human, D1-D6, as m12; Two such trimers associate to the hexamer; also called one half of the gp130EC complex; source: equimolar mix of the purified proteins; not shown: His6, N-terminal, cleaved; His8, N-terminal, cleaved; copies: 1 + 1 + 1
B2: IL-11Δ10 (ligand, human)
chain: T2 sequence 1 with P48A, A49M, I50S, D51A, Y52G, A137W
notes: numbers count on: the mature protein; also called N-terminally truncated form of IL-11; WT IL-11Δ10; not shown: His6, N-terminal, cleaved
B3: IL-11Δ10/IL-11Rα_(D1-D3) binary complex (complex, human)
chain 1: T2 sequence 1 with P48A, A49M, I50S, D51A, Y52G, A137W
chain 2: T2 sequence 2
notes: IL-11, human, IL-11Δ10, as m1; numbers count on: the mature protein; IL-11Rα, human, D1-D3, as m8; m1 with m8; also called IL-11Rα_(D1-D3)/IL-11Δ10 binary complex; binary IL-11/IL-11Rα complex; source: formed from the purified proteins (IL-11Δ10 from E. coli, IL-11Rα_(D1-D3) from Sf21); in ITC by titrating the cytokine into IL-11Rα; not shown: His6, N-terminal, cleaved; His8, N-terminal, cleaved; …
B4: gp130_(D1-D3) (receptor, human)
chain: GELLDPCGYISPESPVVQLHSNFTAVCVLKEKCMDYFHVNANYIVWKTNHFTIPKEQYTIINRTASSVTFTDIASLNIQLTCNILTFGQLEQNVYGITIISGLPPEKPKNLSCIVNEGKKMRCEWDGGRETHLETNFTLKSEWATHKFADCKAKRDTPTSCTVDYSTVYFVNIEVWVEAENALGKVTSDHINFDPVYKVKPNPPHNLSVINSEELSSILKLTWTNPSIKSVIILKYNIQYRTKDASTWSQIPPEDTASTRSSFTVQDLKPFTEYVFRIRCMKEDGKGYWSDWSEEASGITYEDR
modifications: N-linked glycans (N21, N61, N135 seen in the structures)
notes: glycoprotein 130 (gp130), human, domains D1-D3; Secreted with a honeybee-melittin signal peptide; not shown: His8, N-terminal, cleaved

Legend:
[1] = molecular target: the molecule itself; test: AUC; sedimentation velocity, 50,000 rpm, 20 °C, c(s) model with floating frictional ratio (SEDFIT)
gp130EC [2] = molecular target: T1, gp130EC; test: cryo-EM structure; IL-11Δ10/IL-11Rα_(D1-D3)/gp130EC complex, 1.5 mg/mL, with 1–2 mM n-dodecyl β-D-maltoside, not size exclusion purified; C2 symmetry, 3.8 Å; settings: both partners purified
gp130EC [3] = molecular target: T1, gp130EC; test: ITC; gp130 in the syringe titrated against the cytokine/IL-11Rα_(D1-D3) complex formed in the cell, 288 K, TBS pH 8.5, 1:1 interaction model, n = 3; settings: both partners purified
[4] = molecular target: T2, IL-11_(Δ10/Mutein)/IL-11Rα_(D1-D3) …; test: as above; settings: both partners purified
[5] = molecular target: B3; test: as above; settings: both partners purified
[6] = molecular target: IL-11_(Δ10/PAIDY)/IL-11Rα_(D1-D3) binary complex (human) (UniProt P20809); test: as above

Binder: B1
- binding result [1]: binds

Binder: B2
- binding result (gp130EC [2]): binds

Binder: B3
- Kd (gp130EC [3]): 4 nM

Binder: B4
- Kd [4]: 55 nM
- Kd [5]: 3 nM
- dH [5]: -8.13 kcal/mol
- Kd [6]: 20 nM
